The source of these data is US20210032299A1.

Starred links: 1 amine or outer side, 2 acyl side, 3 side chain; linkers in the order of their positions; H or OH if unused. Non-standard residues stand in square brackets, D forms with d. Groups on a side chain read outwards from the residue. No end group written: not given here. *: point of attachment. C20 diacid = O=C(O)CCCCCCCCCCCCCCCCCCC(=O)*; C18 diacid = O=C(O)CCCCCCCCCCCCCCCCC(=O)*; αMePhe(2-F) = C[C@](N)(Cc1ccccc1F)C(=O)O; γGlu = O=C(O)[C@H](CCC(=O)[*:2])N[*:1]; 4Pal = N[C@@H](Cc1ccncc1)C(=O)O; αMeL = CC(C)C[C@](C)(N)C(=O)O; Orn = NCCC[C@H](N)C(=O)O; AEEA = NCCOCCOCC(=O)O; Aib = CC(C)(N)C(=O)O

T1: human glucose-dependent insulinotropic polypeptide (GIP) receptor (human), P48546
T1 chain: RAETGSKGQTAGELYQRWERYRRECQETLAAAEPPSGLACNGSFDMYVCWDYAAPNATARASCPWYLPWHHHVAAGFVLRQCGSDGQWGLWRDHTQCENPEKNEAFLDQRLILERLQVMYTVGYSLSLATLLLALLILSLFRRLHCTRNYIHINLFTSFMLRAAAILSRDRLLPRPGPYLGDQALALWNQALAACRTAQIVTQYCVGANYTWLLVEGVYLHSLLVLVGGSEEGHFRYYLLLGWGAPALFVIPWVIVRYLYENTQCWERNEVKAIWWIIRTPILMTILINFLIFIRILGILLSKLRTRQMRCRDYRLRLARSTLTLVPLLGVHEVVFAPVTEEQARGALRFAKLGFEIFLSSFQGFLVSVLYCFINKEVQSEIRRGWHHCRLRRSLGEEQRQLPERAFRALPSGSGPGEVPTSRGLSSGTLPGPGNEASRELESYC

B1: Example 94 (peptide)
peptide: Y[Aib]EGT[αMePhe(2-F)]ISDYSIALDKIHQ[Aib]EFVNYK([AEEA-AEEA-γGlu-C18 diacid])LAGGPSSGAPPPS-NH2
modifications: N-terminus assumed
SMILES: CC[C@H](C)[C@H](NC(=O)[C@H](CO)NC(=O)[C@H](Cc1ccc(O)cc1)NC(=O)[C@H](CC(=O)O)NC(=O)[C@H](CO)NC(=O)[C@@H](NC(=O)[C@](C)(Cc1ccccc1F)NC(=O)[C@@H](NC(=O)CNC(=O)[C@H](CCC(=O)O)NC(=O)C(C)(C)NC(=O)[C@@H](N)Cc1ccc(O)cc1)[C@@H](C)O)[C@@H](C)CC)C(=O)N[C@@H](C)C(=O)N[C@@H](CC(C)C)C(=O)N[C@@H](CC(=O)O)C(=O)N[C@@H](CCCCN)C(=O)N[C@H](C(=O)N[C@@H](Cc1c[nH]cn1)C(=O)N[C@@H](CCC(N)=O)C(=O)NC(C)(C)C(=O)N[C@@H](CCC(=O)O)C(=O)N[C@@H](Cc1ccccc1)C(=O)N[C@H](C(=O)N[C@@H](CC(N)=O)C(=O)N[C@@H](Cc1ccc(O)cc1)C(=O)N[C@@H](CCCCNC(=O)COCCOCCNC(=O)COCCOCCNC(=O)CC[C@H](NC(=O)CCCCCCCCCCCCCCCCC(=O)O)C(=O)O)C(=O)N[C@@H](CC(C)C)C(=O)N[C@@H](C)C(=O)NCC(=O)NCC(=O)N1CCC[C@H]1C(=O)N[C@@H](CO)C(=O)N[C@@H](CO)C(=O)NCC(=O)N[C@@H](C)C(=O)N1CCC[C@H]1C(=O)N1CCC[C@H]1C(=O)N1CCC[C@H]1C(=O)N[C@@H](CO)C(N)=O)C(C)C)[C@@H](C)CC
B2: Example 5 (peptide)
peptide: Y[Aib]EGTFISDYSI[αMeL]LDKIHQ[Aib]DFVEYK([AEEA-AEEA-γGlu-C20 diacid])LEGGPSSGAPPPS-NH2
modifications: N-terminus assumed
SMILES: CC[C@H](C)[C@H](NC(=O)[C@H](CCCCN)NC(=O)[C@H](CC(=O)O)NC(=O)[C@H](CC(C)C)NC(=O)[C@](C)(CC(C)C)NC(=O)[C@@H](NC(=O)[C@H](CO)NC(=O)[C@H](Cc1ccc(O)cc1)NC(=O)[C@H](CC(=O)O)NC(=O)[C@H](CO)NC(=O)[C@@H](NC(=O)[C@H](Cc1ccccc1)NC(=O)[C@@H](NC(=O)CNC(=O)[C@H](CCC(=O)O)NC(=O)C(C)(C)NC(=O)[C@@H](N)Cc1ccc(O)cc1)[C@@H](C)O)[C@@H](C)CC)[C@@H](C)CC)C(=O)N[C@@H](Cc1c[nH]cn1)C(=O)N[C@@H](CCC(N)=O)C(=O)NC(C)(C)C(=O)N[C@@H](CC(=O)O)C(=O)N[C@@H](Cc1ccccc1)C(=O)N[C@H](C(=O)N[C@@H](CCC(=O)O)C(=O)N[C@@H](Cc1ccc(O)cc1)C(=O)N[C@@H](CCCCNC(=O)COCCOCCNC(=O)COCCOCCNC(=O)CC[C@H](NC(=O)CCCCCCCCCCCCCCCCCCC(=O)O)C(=O)O)C(=O)N[C@@H](CC(C)C)C(=O)N[C@@H](CCC(=O)O)C(=O)NCC(=O)NCC(=O)N1CCC[C@H]1C(=O)N[C@@H](CO)C(=O)N[C@@H](CO)C(=O)NCC(=O)N[C@@H](C)C(=O)N1CCC[C@H]1C(=O)N1CCC[C@H]1C(=O)N1CCC[C@H]1C(=O)N[C@@H](CO)C(N)=O)C(C)C
B3: Example 110 (peptide)
peptide: Y[Aib]EGTFISDYSI[αMeL]LDKIHQ[Aib]DFVE[4Pal]K([AEEA-AEEA-γGlu-C18 diacid])LEGGPSSGAPPPS-NH2
modifications: N-terminus assumed
SMILES: CC[C@H](C)[C@H](NC(=O)[C@H](CCCCN)NC(=O)[C@H](CC(=O)O)NC(=O)[C@H](CC(C)C)NC(=O)[C@](C)(CC(C)C)NC(=O)[C@@H](NC(=O)[C@H](CO)NC(=O)[C@H](Cc1ccc(O)cc1)NC(=O)[C@H](CC(=O)O)NC(=O)[C@H](CO)NC(=O)[C@@H](NC(=O)[C@H](Cc1ccccc1)NC(=O)[C@@H](NC(=O)CNC(=O)[C@H](CCC(=O)O)NC(=O)C(C)(C)NC(=O)[C@@H](N)Cc1ccc(O)cc1)[C@@H](C)O)[C@@H](C)CC)[C@@H](C)CC)C(=O)N[C@@H](Cc1c[nH]cn1)C(=O)N[C@@H](CCC(N)=O)C(=O)NC(C)(C)C(=O)N[C@@H](CC(=O)O)C(=O)N[C@@H](Cc1ccccc1)C(=O)N[C@H](C(=O)N[C@@H](CCC(=O)O)C(=O)N[C@@H](Cc1ccncc1)C(=O)N[C@@H](CCCCNC(=O)COCCOCCNC(=O)COCCOCCNC(=O)CC[C@H](NC(=O)CCCCCCCCCCCCCCCCC(=O)O)C(=O)O)C(=O)N[C@@H](CC(C)C)C(=O)N[C@@H](CCC(=O)O)C(=O)NCC(=O)NCC(=O)N1CCC[C@H]1C(=O)N[C@@H](CO)C(=O)N[C@@H](CO)C(=O)NCC(=O)N[C@@H](C)C(=O)N1CCC[C@H]1C(=O)N1CCC[C@H]1C(=O)N1CCC[C@H]1C(=O)N[C@@H](CO)C(N)=O)C(C)C
B4: Example 111 (peptide)
peptide: Y[Aib]EGTFISDYSI[αMeL]LD[Orn]IHQ[Aib]DFVE[4Pal]K([AEEA-AEEA-γGlu-C18 diacid])LEGGPSSGAPPPS-NH2
modifications: N-terminus assumed
SMILES: CC[C@H](C)[C@H](NC(=O)[C@H](CCCN)NC(=O)[C@H](CC(=O)O)NC(=O)[C@H](CC(C)C)NC(=O)[C@](C)(CC(C)C)NC(=O)[C@@H](NC(=O)[C@H](CO)NC(=O)[C@H](Cc1ccc(O)cc1)NC(=O)[C@H](CC(=O)O)NC(=O)[C@H](CO)NC(=O)[C@@H](NC(=O)[C@H](Cc1ccccc1)NC(=O)[C@@H](NC(=O)CNC(=O)[C@H](CCC(=O)O)NC(=O)C(C)(C)NC(=O)[C@@H](N)Cc1ccc(O)cc1)[C@@H](C)O)[C@@H](C)CC)[C@@H](C)CC)C(=O)N[C@@H](Cc1c[nH]cn1)C(=O)N[C@@H](CCC(N)=O)C(=O)NC(C)(C)C(=O)N[C@@H](CC(=O)O)C(=O)N[C@@H](Cc1ccccc1)C(=O)N[C@H](C(=O)N[C@@H](CCC(=O)O)C(=O)N[C@@H](Cc1ccncc1)C(=O)N[C@@H](CCCCNC(=O)COCCOCCNC(=O)COCCOCCNC(=O)CC[C@H](NC(=O)CCCCCCCCCCCCCCCCC(=O)O)C(=O)O)C(=O)N[C@@H](CC(C)C)C(=O)N[C@@H](CCC(=O)O)C(=O)NCC(=O)NCC(=O)N1CCC[C@H]1C(=O)N[C@@H](CO)C(=O)N[C@@H](CO)C(=O)NCC(=O)N[C@@H](C)C(=O)N1CCC[C@H]1C(=O)N1CCC[C@H]1C(=O)N1CCC[C@H]1C(=O)N[C@@H](CO)C(N)=O)C(C)C
B5: Example 114 (peptide)
peptide: Y[Aib]EGT[αMePhe(2-F)]ISDYSIALDKIHQ[Aib]DFVE[4Pal]K([AEEA-AEEA-γGlu-C20 diacid])LEQGPSSGAPPPS-NH2
modifications: N-terminus assumed
SMILES: CC[C@H](C)[C@H](NC(=O)[C@H](CO)NC(=O)[C@H](Cc1ccc(O)cc1)NC(=O)[C@H](CC(=O)O)NC(=O)[C@H](CO)NC(=O)[C@@H](NC(=O)[C@](C)(Cc1ccccc1F)NC(=O)[C@@H](NC(=O)CNC(=O)[C@H](CCC(=O)O)NC(=O)C(C)(C)NC(=O)[C@@H](N)Cc1ccc(O)cc1)[C@@H](C)O)[C@@H](C)CC)C(=O)N[C@@H](C)C(=O)N[C@@H](CC(C)C)C(=O)N[C@@H](CC(=O)O)C(=O)N[C@@H](CCCCN)C(=O)N[C@H](C(=O)N[C@@H](Cc1c[nH]cn1)C(=O)N[C@@H](CCC(N)=O)C(=O)NC(C)(C)C(=O)N[C@@H](CC(=O)O)C(=O)N[C@@H](Cc1ccccc1)C(=O)N[C@H](C(=O)N[C@@H](CCC(=O)O)C(=O)N[C@@H](Cc1ccncc1)C(=O)N[C@@H](CCCCNC(=O)COCCOCCNC(=O)COCCOCCNC(=O)CC[C@H](NC(=O)CCCCCCCCCCCCCCCCCCC(=O)O)C(=O)O)C(=O)N[C@@H](CC(C)C)C(=O)N[C@@H](CCC(=O)O)C(=O)N[C@@H](CCC(N)=O)C(=O)NCC(=O)N1CCC[C@H]1C(=O)N[C@@H](CO)C(=O)N[C@@H](CO)C(=O)NCC(=O)N[C@@H](C)C(=O)N1CCC[C@H]1C(=O)N1CCC[C@H]1C(=O)N1CCC[C@H]1C(=O)N[C@@H](CO)C(N)=O)C(C)C)[C@@H](C)CC
B6: Example 118 (peptide)
peptide: Y[Aib]EGTFISDYSI[αMeL]LDKIRQ[Aib]DFVEYK([AEEA-AEEA-γGlu-C20 diacid])LEAGPSSGAPPPS-NH2
modifications: N-terminus assumed
SMILES: CC[C@H](C)[C@H](NC(=O)[C@H](CCCCN)NC(=O)[C@H](CC(=O)O)NC(=O)[C@H](CC(C)C)NC(=O)[C@](C)(CC(C)C)NC(=O)[C@@H](NC(=O)[C@H](CO)NC(=O)[C@H](Cc1ccc(O)cc1)NC(=O)[C@H](CC(=O)O)NC(=O)[C@H](CO)NC(=O)[C@@H](NC(=O)[C@H](Cc1ccccc1)NC(=O)[C@@H](NC(=O)CNC(=O)[C@H](CCC(=O)O)NC(=O)C(C)(C)NC(=O)[C@@H](N)Cc1ccc(O)cc1)[C@@H](C)O)[C@@H](C)CC)[C@@H](C)CC)C(=O)N[C@@H](CCCNC(=N)N)C(=O)N[C@@H](CCC(N)=O)C(=O)NC(C)(C)C(=O)N[C@@H](CC(=O)O)C(=O)N[C@@H](Cc1ccccc1)C(=O)N[C@H](C(=O)N[C@@H](CCC(=O)O)C(=O)N[C@@H](Cc1ccc(O)cc1)C(=O)N[C@@H](CCCCNC(=O)COCCOCCNC(=O)COCCOCCNC(=O)CC[C@H](NC(=O)CCCCCCCCCCCCCCCCCCC(=O)O)C(=O)O)C(=O)N[C@@H](CC(C)C)C(=O)N[C@@H](CCC(=O)O)C(=O)N[C@@H](C)C(=O)NCC(=O)N1CCC[C@H]1C(=O)N[C@@H](CO)C(=O)N[C@@H](CO)C(=O)NCC(=O)N[C@@H](C)C(=O)N1CCC[C@H]1C(=O)N1CCC[C@H]1C(=O)N1CCC[C@H]1C(=O)N[C@@H](CO)C(N)=O)C(C)C

human glucagon receptor (human), P47871, sequence (P47871 26-477): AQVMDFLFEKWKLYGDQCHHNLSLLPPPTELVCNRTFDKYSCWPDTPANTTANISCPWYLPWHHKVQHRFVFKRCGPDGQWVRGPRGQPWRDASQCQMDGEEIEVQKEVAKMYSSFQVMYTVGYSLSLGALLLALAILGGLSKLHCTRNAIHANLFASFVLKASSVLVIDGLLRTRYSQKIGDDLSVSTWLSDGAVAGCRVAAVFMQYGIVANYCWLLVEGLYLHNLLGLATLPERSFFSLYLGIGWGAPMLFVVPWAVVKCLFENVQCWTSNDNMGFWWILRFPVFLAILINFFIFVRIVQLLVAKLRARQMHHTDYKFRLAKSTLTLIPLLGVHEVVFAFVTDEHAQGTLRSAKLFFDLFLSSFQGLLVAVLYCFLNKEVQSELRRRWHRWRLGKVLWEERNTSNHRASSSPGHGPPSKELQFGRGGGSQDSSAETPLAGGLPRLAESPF

The first assay addresses human glucagon receptor (human), P47871. In words: SPA, displacement of [125I]-Gcg from hGcgR membranes, 0.1% bacitracin. (Displacement assays read how much labelled ligand stays bound in the presence of the test substance.)
Broadly, the Ki is the dissociation constant of the complex between target and ligand, obtained from inhibition or displacement. Higher therefore signals weaker binding. As to B1, the Ki was 114000 pM.
B2: the Ki amounted to 619000 pM.

The target of another assay is T1, human glucose-dependent insulinotropic …. Briefly: SPA, displacement of [125I]-GIP from hGIPR membranes, 0.1% bacitracin.
B3 gave a Ki of 339 pM.
Molecule B4 displayed an inhibition constant Ki of 87.1 pM.
The same measure, in the same setting: as for B1, the figure is 31 pM; as for B5, 121 pM; as for B6, 69.6 pM.
Take B2: the inhibition constant (Ki) came to 77.1 pM.
